Test results as given in PMC8654964, “Centrosome dysfunction associated with somatic expression of the synaptonemal complex protein TEX12” (Communications Biology, 2021).

B1: TEX12 (human, full length, amino acids 1-123) (natural protein, UniProt Q9BXU0 1-123, looked up)
chain: MMANHLVKPDNRNCKRPRELESPVPDSPQLSSLGKSDSSFSEISGLFYKDEALEKDLNDVSKEINLMLSTYAKLLSERAAVDASYIDEIDELFKEANAIENFLIQKREFLRQRFTVIANTLHR
notes: Human TEX12, synaptonemal complex central element protein, amino acids 1-123 (full length); Cloned into pMAT11 as a His6-MBP fusion with a TEV site; also called recombinant human TEX12; source: E. coli BL21(DE3), purified (Ni-NTA, amylose, TEV cleavage, anion exchange); not shown: His6, N-terminal, cleaved; MBP, N-terminal, cleaved
B2: TEX12core (human TEX12 amino acids 49-123) (domain or fragment, UniProt Q9BXU0 49-123, looked up)
chain: KDEALEKDLNDVSKEINLMLSTYAKLLSERAAVDASYIDEIDELFKEANAIENFLIQKREFLRQRFTVIANTLHR
notes: Human TEX12, alpha-helical structural core, amino acids 49-123; Cloned into pMAT11 as a His6-MBP fusion with a TEV site; also called structural core (49-123); source: E. coli BL21(DE3), purified (Ni-NTA, amylose, TEV cleavage, anion exchange); not shown: His6, N-terminal, cleaved; MBP, N-terminal, cleaved

Target: the molecule itself
Test: SEC-MALS; Superdex 200 Increase 10/300 GL, 20 mM Tris pH 8.0, 150 mM KCl, 2 mM DTT, 0.5 ml/min; TEX12 loaded at 12 mg/ml, TEX12core at 4 mg/ml; self-association (homodimer)

| Protein | stoichiometry N |
| --- | --- |
| B1 | 2 |
| B2 | 2 |
